The record followed here is the Human Domainome abundance scans (Beltran et al. 2025).

± gives the uncertainty stated by the source.

The chains are these.
B1: Nuclear receptor subfamily 1 group D member 2, residues 103 to 171; numbered along this chain, Q14995 (parent)
chain: CKVCGDVASGFHYGVHACEGCKGFFRRSIQQNIQYKKCLKNENCSIMRMNRNRCQQCRFKKCLSVGMSR

The variants in the series derive from B1. The series is described as follows: abundance fitness (aPCA) (normalised: wild type 0, dead -1); higher = more abundant; growth selection in yeast, the domain comes from the species named. Conditions: Homo sapiens.
In the case of C38S, the abundance fitness is -0.579 ± 0.075.

Consider C38L, for which the abundance fitness is -1.01 ± 0.22.

Take C38T: the abundance fitness was -0.768 ± 0.26.

In the case of C38Q, the abundance fitness was -0.803 ± 0.45.

Take C38G: the abundance fitness was -0.836 ± 0.14.

Take C38W: the abundance fitness is -0.521 ± 0.13.

As to K61A, the abundance fitness is -0.328 ± 0.15.

For the variant K61F, the abundance fitness is -0.608 ± 0.35.

Turning to C4L, the abundance fitness is -0.902 ± 0.17.

For C4G, the abundance fitness is -0.795 ± 0.19.

Regarding G14A, the abundance fitness is -0.871 ± 0.23.

In the case of G14P, the abundance fitness was -0.835 ± 0.24.

On to G14F, for which the abundance fitness is -0.558 ± 0.41.

In the case of K36L, the abundance fitness is -0.459 ± 0.17.

On to K36E, for which the abundance fitness was determined as 0.219 ± 0.35.

For G5C, the abundance fitness is -0.769 ± 0.18.

For the variant G5A, the abundance fitness was -0.621 ± 0.1.

For the variant G5L, the abundance fitness was -0.787 ± 0.1.

On to G5M, for which the abundance fitness was -0.226 ± 0.11.

With G5D, the abundance fitness is -0.645 ± 0.18.

In the case of N43W, the abundance fitness was -0.79 ± 0.31.

For N43A, the abundance fitness turned out to be 0.01 ± 0.085.

Consider N43P, for which the abundance fitness is -0.472 ± 0.15.

In the case of N43K, the abundance fitness was -0.231 ± 0.12.

N43C: the abundance fitness is -0.083 ± 0.093.

On to N43V, for which the abundance fitness is -0.181 ± 0.091.

Consider N43D, for which the abundance fitness was -0.222 ± 0.16.

With N43R, the abundance fitness is -0.12 ± 0.068.

Take V3D: the abundance fitness is -0.763 ± 0.45.

As to V3N, the abundance fitness was -0.78 ± 0.38.

As to R26W, the abundance fitness stood at 0.408 ± 0.069.

For R26L, the abundance fitness is -0.226 ± 0.14.

As to R26K, the abundance fitness was -0.349 ± 0.34.

Turning to R26T, the abundance fitness was found to be 0.092 ± 0.17.

On to R26F, for which the abundance fitness was -0.326 ± 0.43.

As for R26N, the abundance fitness came to 0.135 ± 0.18.

As to R26G, the abundance fitness is -0.092 ± 0.091.

Consider R26V, for which the abundance fitness is -0.383 ± 0.16.

For the variant G20D, the abundance fitness was 0.531 ± 0.19.

Consider G20S, for which the abundance fitness amounted to 0.212 ± 0.27.

H16L: the abundance fitness was 0.098 ± 0.056.

As to H16I, the abundance fitness is -0.306 ± 0.15.

In the case of H16P, the abundance fitness was -0.085 ± 0.091.

Turning to H16R, the abundance fitness is -0.162 ± 0.067.

For Q30R, the abundance fitness is -0.557 ± 0.16.

For the variant Q30D, the abundance fitness was 0.022 ± 0.16.

As to Q30A, the abundance fitness came to 0.04 ± 0.096.

On to Q30M, for which the abundance fitness is -0.521 ± 0.41.

Consider Q30K, for which the abundance fitness was -0.195 ± 0.17.

Consider Q30T, for which the abundance fitness came out at 0.126 ± 0.17.

Regarding C57G, the abundance fitness is -0.855 ± 0.23.

Turning to C57I, the abundance fitness was -0.44 ± 0.2.

For the variant C57M, the abundance fitness is -1 ± 0.46.

Regarding C57L, the abundance fitness is -0.708 ± 0.16.

Take C57V: the abundance fitness is -1.01 ± 0.37.

As for M47T, the abundance fitness is 0.307 ± 0.13.

As to M47K, the abundance fitness is -0.185 ± 0.25.

For the variant M47Y, the abundance fitness was -0.482 ± 0.24.

For the variant M47L, the abundance fitness was -0.057 ± 0.099.

Turning to M47V, the abundance fitness is -0.051 ± 0.047.

In the case of M47P, the abundance fitness was -0.237 ± 0.13.

Take Q55N: the abundance fitness is -0.265 ± 0.18.

As to Q55M, the abundance fitness is -0.53 ± 0.16.

Take Q55S: the abundance fitness is -0.115 ± 0.074.

Take Q55K: the abundance fitness is -0.202 ± 0.13.

Q55R: the abundance fitness was -0.418 ± 0.084.

Take E19S: the abundance fitness is -0.583 ± 0.18.

K60N: the abundance fitness is -0.056 ± 0.21.

Consider K60L, for which the abundance fitness was -0.097 ± 0.087.

K60E: the abundance fitness turned out to be 0.033 ± 0.12.

On to K60F, for which the abundance fitness came out at 0.044 ± 0.2.

Take K60M: the abundance fitness is -0.141 ± 0.14.

Take R53L: the abundance fitness worked out at 0.228 ± 0.061.

As for R53C, the abundance fitness came out at 0.3 ± 0.082.

Regarding R53T, the abundance fitness turned out to be 0.092 ± 0.08.

Turning to R53M, the abundance fitness worked out at 0.098 ± 0.086.

As for R53H, the abundance fitness was found to be 0.029 ± 0.2.

Turning to R53D, the abundance fitness turned out to be 0.318 ± 0.12.

In the case of R53A, the abundance fitness was determined as 0.248 ± 0.058.

Consider R53Q, for which the abundance fitness worked out at 0.364 ± 0.077.

As to R53G, the abundance fitness amounted to 0.103 ± 0.052.

On to H12M, for which the abundance fitness is -0.936 ± 0.28.

For the variant H12N, the abundance fitness was -0.161 ± 0.17.

Consider H12S, for which the abundance fitness was -0.301 ± 0.077.

Take H12E: the abundance fitness was -0.587 ± 0.2.

Consider H12F, for which the abundance fitness is -0.514 ± 0.16.

As for H12P, the abundance fitness was -0.835 ± 0.22.

On to H12D, for which the abundance fitness is -0.44 ± 0.13.

As for H12Y, the abundance fitness is -0.253 ± 0.12.

In the case of V7R, the abundance fitness came out at 0.032 ± 0.061.

Regarding V7Q, the abundance fitness was 0.118 ± 0.11.

Regarding V7C, the abundance fitness is -0.526 ± 0.29.

For V7D, the abundance fitness was -0.001 ± 0.15.

V7K: the abundance fitness came to 0.167 ± 0.093.

As to V7W, the abundance fitness is -0.195 ± 0.12.

As for V7L, the abundance fitness is -0.119 ± 0.075.

Turning to V7G, the abundance fitness was -0.469 ± 0.088.

M67A: the abundance fitness is -0.574 ± 0.13.

For M67S, the abundance fitness is -0.925 ± 0.23.

For the variant M67V, the abundance fitness is -0.794 ± 0.14.

As for M67L, the abundance fitness is -0.817 ± 0.17.

For M67G, the abundance fitness was -0.744 ± 0.13.

As to M67K, the abundance fitness is -0.688 ± 0.14.

M67W: the abundance fitness is -0.415 ± 0.2.

In the case of C62G, the abundance fitness is -0.857 ± 0.19.

As to C62L, the abundance fitness is -0.875 ± 0.24.

For C62P, the abundance fitness was -0.843 ± 0.38.

As to C62Y, the abundance fitness is -0.492 ± 0.31.

Consider C62S, for which the abundance fitness is -0.757 ± 0.16.

Take F24R: the abundance fitness is -0.924 ± 0.19.

Take F24N: the abundance fitness was -0.908 ± 0.37.

Regarding F24I, the abundance fitness is -1.02 ± 0.42.

As for F24W, the abundance fitness was -0.723 ± 0.23.

For L63A, the abundance fitness is -0.071 ± 0.26.

Turning to L63P, the abundance fitness is -0.789 ± 0.33.

With L63E, the abundance fitness was -0.121 ± 0.15.

Turning to L63G, the abundance fitness is -0.92 ± 0.24.

In the case of L63K, the abundance fitness is -0.8 ± 0.28.

Take L63R: the abundance fitness was -0.991 ± 0.25.

Turning to I33V, the abundance fitness is -0.213 ± 0.048.

For the variant I33S, the abundance fitness is -0.527 ± 0.071.

Regarding I33A, the abundance fitness is -0.377 ± 0.058.

For I33E, the abundance fitness was -0.424 ± 0.089.

As to I33H, the abundance fitness was -0.493 ± 0.14.

Consider I33R, for which the abundance fitness is -0.531 ± 0.058.

For the variant I33Q, the abundance fitness is -0.553 ± 0.11.

As for I33L, the abundance fitness is -0.065 ± 0.049.

With I33M, the abundance fitness was -0.35 ± 0.077.

S28K: the abundance fitness was -0.801 ± 0.49.

As for S64Q, the abundance fitness is 0.12 ± 0.089.

Consider S64G, for which the abundance fitness was -0.481 ± 0.13.

Consider S64D, for which the abundance fitness was -0.051 ± 0.1.

For the variant S64K, the abundance fitness came to 0.236 ± 0.095.

In the case of S64P, the abundance fitness is -0.857 ± 0.19.

For S64N, the abundance fitness is -0.36 ± 0.14.

For S64H, the abundance fitness was -0.449 ± 0.19.

For the variant S64A, the abundance fitness is -0.048 ± 0.1.

For S64F, the abundance fitness was -0.545 ± 0.15.

As to S64E, the abundance fitness is 0.346 ± 0.11.

On to S64L, for which the abundance fitness came out at 0.044 ± 0.064.

As for M49Y, the abundance fitness was determined as 0.128 ± 0.37.

Regarding M49F, the abundance fitness is 0.195 ± 0.37.

Consider M49I, for which the abundance fitness came out at 0.56 ± 0.37.

As for M49E, the abundance fitness was found to be 0.114 ± 0.12.

Turning to N52L, the abundance fitness was -0.14 ± 0.18.

N52M: the abundance fitness was -0.419 ± 0.23.

N52V: the abundance fitness was -0.532 ± 0.34.

On to N52R, for which the abundance fitness was -0.805 ± 0.28.

As to L39H, the abundance fitness is -0.167 ± 0.17.

Consider L39D, for which the abundance fitness worked out at 0.321 ± 0.12.

On to L39F, for which the abundance fitness is -0.57 ± 0.24.

In the case of L39K, the abundance fitness was -0.128 ± 0.18.

As to L39N, the abundance fitness amounted to 0.018 ± 0.13.

As to Q31C, the abundance fitness is -0.551 ± 0.15.

Turning to Q31P, the abundance fitness is -0.457 ± 0.15.

Consider Q31T, for which the abundance fitness was -0.238 ± 0.11.

Take Q31R: the abundance fitness was -0.289 ± 0.075.

Take Q31I: the abundance fitness was -0.635 ± 0.29.

Turning to Q31E, the abundance fitness is 0.197 ± 0.1.

Q31V: the abundance fitness was -0.623 ± 0.13.

With Q31K, the abundance fitness is -0.391 ± 0.25.

Take Q31L: the abundance fitness was -0.169 ± 0.11.

Regarding E42F, the abundance fitness is -0.809 ± 0.29.

On to E42G, for which the abundance fitness was 0.13 ± 0.063.

As for E42Y, the abundance fitness was -0.674 ± 0.31.

For E42Q, the abundance fitness is -0.23 ± 0.19.

Regarding C1E, the abundance fitness was -0.613 ± 0.48.
